Source: patent publication US20180355338A1

How the values were obtained:
[1] = target: TY-145 protease variant S173P, S175P, I178P, F180Y (Bacillus sp. TY-145); assay: Ki fitted from Suc-AAPF-pNA activity; Model B detergent; ratio against m3 (without I178P)
[2] = target: TY-145 protease variant S173P, S175P, I178F, F180Y (Bacillus sp. TY-145); assay: Ki fitted from Suc-AAPF-pNA activity; Model B detergent; ratio against m3 (without I178F)
[3] = target: TY-145 protease variant S173P, S175P, N176Y, F180Y (Bacillus sp. TY-145); assay: Ki fitted from Suc-AAPF-pNA activity; Model B detergent; ratio against m3 (without N176Y)
[4] = target: TY-145 protease variant S27K, S171N, S173P, G174R, S175P, F180Y, L184Y, Q198E, T297P (Bacillus sp. TY-145); assay: Ki fitted from Suc-AAPF-pNA activity; Model B detergent; ratio against m4 (without L184Y)
[5] = target: TY-145 protease variant K146W, S173P, S175P, F180Y (Bacillus sp. TY-145); assay: Ki fitted from Suc-AAPF-pNA activity; Tris buffer pH 8; ratio against m3 (without K146W)
[6] = target: TY-145 protease variant K146T, S173P, S175P, F180Y (Bacillus sp. TY-145); assay: Ki fitted from Suc-AAPF-pNA activity; Model B detergent; ratio against m3 (without K146T)
[7] = target: TY-145 protease variant S173P, S175P, F180Y, L184F (Bacillus sp. TY-145); assay: Ki fitted from Suc-AAPF-pNA activity; Model B detergent; ratio against m3 (without L184F)
[8] = target: TY-145 protease variant S27K, K146P, S148R, A151R, S171N, S173P, G174R, S175P, F180Y, Q198E, N199K, T297P (Bacillus sp. TY-145); assay: Ki fitted from Suc-AAPF-pNA activity; Model B detergent; ratio against m5 (without A151R)
[9] = target: TY-145 protease variant S27K, Q70N, G107N, I121V, E127Q, S173P, S175P, F180Y, L184F, Q198E, T297P (Bacillus sp. TY-145); assay: Ki fitted from Suc-AAPF-pNA activity; Model B detergent; ratio against m7 (without L184F)
[10] = target: TY-145 protease variant K146N, S173P, S175P, F180Y (Bacillus sp. TY-145); assay: Ki fitted from Suc-AAPF-pNA activity; Tris buffer pH 8; ratio against m3 (without K146N)
[11] = target: TY-145 protease variant S27K, S173P, G174K, S175P, F180Y, L184F, Q198E, N199R, T297P (Bacillus sp. TY-145); assay: Ki fitted from Suc-AAPF-pNA activity; Model B detergent; ratio against m9 (without L184F)
[12] = target: TY-145 protease variant K146F, S173P, S175P, F180Y (Bacillus sp. TY-145); assay: Ki fitted from Suc-AAPF-pNA activity; Model B detergent; ratio against m3 (without K146F)
[13] = target: TY-145 protease variant S27K, S173P, G174K, S175P, F180Y, L184Y, Q197K, Q198E, T297P (Bacillus sp. TY-145); assay: Ki fitted from Suc-AAPF-pNA activity; Model B detergent; ratio against m10 (without L184Y)
[14] = target: TY-145 protease variant S27K, I121V, S171N, S173P, G174R, S175P, F180Y, Q198E, R224S, T297P (Bacillus sp. TY-145); assay: Ki fitted from Suc-AAPF-pNA activity; Model B detergent; ratio against m6 (without R224S)
[15] = target: TY-145 protease variant S27K, S171N, S173P, G174R, S175P, F180Y, L184F, Q198E, T297P (Bacillus sp. TY-145); assay: Ki fitted from Suc-AAPF-pNA activity; Model B detergent; ratio against m4 (without L184F)
[16] = target: TY-145 protease variant S27K, S171D, S173P, G174R, S175P, G182A, L184F, Q198E, N199K, R224G, T297P (Bacillus sp. TY-145); assay: Ki fitted from Suc-AAPF-pNA activity; Model B detergent; ratio against m12 (without R224G)
[17] = target: TY-145 protease variant L184Y (Bacillus sp. TY-145); assay: Ki fitted from Suc-AAPF-pNA activity; Model B detergent; relative to TY145 backbone
[18] = target: TY-145 protease variant Y240R (Bacillus sp. TY-145); assay: as above
[19] = target: TY-145 protease variant S111R (Bacillus sp. TY-145); assay: as above
[20] = target: TY-145 protease variant I150N (Bacillus sp. TY-145); assay: as above
[21] = target: TY-145 protease variant R224G (Bacillus sp. TY-145); assay: as above
[22] = target: TY-145 protease variant Q70N (Bacillus sp. TY-145); assay: as above
[23] = target: TY-145 protease variant S27K, S171N, S173P, G174R, S175P, F180Y, Q198E, N199K, R224G, T297P (Bacillus sp. TY-145); assay: Ki fitted from Suc-AAPF-pNA activity; Model B detergent; ratio against m11 (without R224G)
[24] = target: TY-145 protease variant S173P, S175P, F180Y, L184D (Bacillus sp. TY-145); assay: Ki fitted from Suc-AAPF-pNA activity; Model B detergent; ratio against m3 (without L184D)

For “Z-Gly-Ala-NHCH(CH2C6H4pOH)C(OH)(SO3Na)-H, wherein Z is benzyloxycarbonyl (peptide)”, the relative Ki mutation [1] was 0.51, the relative Ki mutation [2] was 0.5 and the relative Ki mutation [3] was 0.81. For the same substance, the relative Ki mutation [4] was 0.18, the relative Ki mutation [5] was 0.16 and the relative Ki mutation [6] was 0.08. For the same substance, the relative Ki mutation [7] was 0.31, the relative Ki mutation [8] was 0.75 and the relative Ki mutation [9] was 0.37. For the same substance, the relative Ki mutation [10] was 0.91, the relative Ki mutation [11] was 0.22 and the relative Ki mutation [12] was 0.25. It also gave a relative Ki mutation [13] of 0.32, a relative Ki mutation [14] of 0.56 and a relative Ki mutation [15] of 0.18. It also gave a relative Ki mutation [16] of 0.49, an IF (binding constant improvement factor, relative Ki) [17] of 0.22 and an IF (binding constant improvement factor, relative Ki) [18] of 0.84. The IF (binding constant improvement factor, relative Ki) [19] was 0.9, the IF (binding constant improvement factor, relative Ki) [20] was 0.27 and the IF (binding constant improvement factor, relative Ki) [21] was 0.6. It also gave an IF (binding constant improvement factor, relative Ki) [22] of 0.3, a relative Ki mutation [23] of 0.74 and a relative Ki mutation [24] of 0.37.
